Assay results taken from patent US20250326807A1 (published 2025).
Read-outs that look alike come from different tables or passages of the source. Ends that are not written are not given here.

How the values were obtained:
[1] = molecular target: T1, Recombinantly expressed fused calprotectin (His6-linker-S100A9-linker-S100A8), product code B-RCAL, BÜHLMANN … (human, UniProt P06702 1-114; P05109 1-93); assay: fluorescence polarization
T1 chain: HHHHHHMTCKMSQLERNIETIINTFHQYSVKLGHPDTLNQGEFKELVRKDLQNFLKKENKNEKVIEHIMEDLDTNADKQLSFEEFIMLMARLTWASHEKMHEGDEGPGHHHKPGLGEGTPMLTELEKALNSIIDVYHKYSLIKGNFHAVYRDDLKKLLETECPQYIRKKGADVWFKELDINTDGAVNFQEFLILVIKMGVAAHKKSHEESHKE

[2] = molecular target: T1, Recombinantly expressed fused …; assay: fluorescence polarization
[3] = molecular target: T1, Recombinantly expressed fused …; assay: fluorescence polarization
[4] = molecular target: T1, Recombinantly expressed fused …; assay: fluorescence polarization
F8 D-Ala = assay: SPR
Y16 β-Ala = assay: SPR
Q12 β-Ala = assay: SPR
Q12 D-Ala = assay: SPR
Y16 D-Ala = assay: SPR
M10 D-Ala = assay: SPR
F11 β-Ala = assay: SPR
M10 β-Ala = assay: SPR
F8 β-Ala = assay: SPR
P9 D-Ala = assay: SPR
P9 β-Ala = assay: SPR
F11 D-Ala = assay: SPR
[5] = molecular target: T1, Recombinantly expressed fused …
[6] = molecular target: T1, Recombinantly expressed fused …; assay: fluorescence polarization

B1: VCQQTASRCPVWECQRCP (peptide)
peptide: VCQQTASRCPVWECQRCP
modifications: not fully specified; cross-linked between cysteines (linker not named); N-terminal 5(6)-carboxyfluorescein; synthesised on rink amide AM resin
[1]
  Kd: 55 nM

B2: ACRTCPLFTCPSCG (peptide)
peptide: ACRTCPLFTCPSCG
modifications: not fully specified; cross-linked between cysteines (linker not named); N-terminal 5(6)-carboxyfluorescein; synthesised on rink amide AM resin
[2]
  Kd: 89 nM

B3: GCDLAHQPCPLYKCTKCP (peptide)
peptide: GCDLAHQPCPLYKCTKCP
modifications: not fully specified; cross-linked between cysteines (linker not named); N-terminal 5(6)-carboxyfluorescein; synthesised on rink amide AM resin
[3]
  Kd: 10 nM

B4: VCPCPLFRAHGCSRFSCQ (peptide)
peptide: VCPCPLFRAHGCSRFSCQ
modifications: not fully specified; cross-linked between cysteines (linker not named); N-terminal 5(6)-carboxyfluorescein; synthesised on rink amide AM resin
[4]
  Kd: 22 nM

B5: TCPLNRTQCPLYACTTCP (peptide)
peptide: TCPLNRTQCPLYACTTCP
modifications: not fully specified; cross-linked between cysteines (linker not named); N-terminal 5(6)-carboxyfluorescein; synthesised on rink amide AM resin
[1]
  Kd: 34 nM

B6: calprotectin (other)
chain: T1 chain
F8 D-Ala
  Kd: > 10000 nM
Y16 β-Ala
  Kd: > 10000 nM
Q12 β-Ala
  Kd: > 10000 nM
Q12 D-Ala
  Kd: > 10000 nM
Y16 D-Ala
  Kd: > 10000 nM
M10 D-Ala
  Kd: > 10000 nM
F11 β-Ala
  Kd: > 10000 nM
M10 β-Ala
  Kd: > 10000 nM
F8 β-Ala
  Kd: > 10000 nM
P9 D-Ala
  Kd: > 10000 nM
P9 β-Ala
  Kd: > 10000 nM
F11 D-Ala
  Kd: > 10000 nM

B7: SCQCPWDLFSQHSLSDCCD (peptide)
peptide: SCQCPWDLFSQHSLSDCCD
modifications: not fully specified; cross-linked between cysteines (linker not named); N-terminal 5(6)-carboxyfluorescein; synthesised on rink amide AM resin
[3]
  Kd: 25 nM

B8: CTQSPCPLYDSHQCSCK (peptide)
peptide: CTQSPCPLYDSHQCSCK
modifications: not fully specified; cross-linked between cysteines (linker not named); N-terminal 5(6)-carboxyfluorescein; synthesised on rink amide AM resin
[4]
  Kd: 38 nM

B9: Linear peptide 3 (RSPESVAFPMFQSHWYSG), all cysteines replaced by serines (peptide)
peptide: RSPESVAFPMFQSHWYSG-NH2
modifications: also: N-terminal 5(6)-carboxyfluorescein only in the fluorescence polarization assay version
[5]
  Kd: 25.5 nM

B10: Peptide 3 (RCPECVAFPMFQCHWYCG), phage display derived, cross-linked between cysteines (peptide)
peptide: RCPECVAFPMFQCHWYCG
modifications: not fully specified; cysteines cross-linked by a chemical linker (linker and isomer not named); N-terminal 5(6)-carboxyfluorescein; synthesised on rink amide AM resin
[6]
  Kd: 23 nM
